Positions of bridges follow the written chain, without caps; N, C: chain ends.
Columns and labels:
[1] = molecular target: VEGFR2 expressed by HUVEC (human, UniProt P35968 20-1356); test: cell-based or functional assay
[2] = molecular target: T1, fusion protein of human VEGFR2 and Fc (human, UniProt P35968 20-764, limits assumed); test: BLI (ForteBio), VEGFR2-Fc on anti-human IgG capture biosensors, peptide in solution, 30 C
T1 construct: not shown: Fc
Experimental: A dissociation constant of binding between the cyclic peptide L1 or BL1 thus synthesized and human VEGFR2 or mouse VEGFR2 was determined by BLI method (ForteBio). A fusion protein of VEGFR2 and Fc was immobilized onto Anti-human IgG Capture Biosensors and the cyclic peptide L1 or BL1 varied in concentration was analyzed. The temperature was set at 30° C.

T1 sequence (P35968 20-764 limits assumed): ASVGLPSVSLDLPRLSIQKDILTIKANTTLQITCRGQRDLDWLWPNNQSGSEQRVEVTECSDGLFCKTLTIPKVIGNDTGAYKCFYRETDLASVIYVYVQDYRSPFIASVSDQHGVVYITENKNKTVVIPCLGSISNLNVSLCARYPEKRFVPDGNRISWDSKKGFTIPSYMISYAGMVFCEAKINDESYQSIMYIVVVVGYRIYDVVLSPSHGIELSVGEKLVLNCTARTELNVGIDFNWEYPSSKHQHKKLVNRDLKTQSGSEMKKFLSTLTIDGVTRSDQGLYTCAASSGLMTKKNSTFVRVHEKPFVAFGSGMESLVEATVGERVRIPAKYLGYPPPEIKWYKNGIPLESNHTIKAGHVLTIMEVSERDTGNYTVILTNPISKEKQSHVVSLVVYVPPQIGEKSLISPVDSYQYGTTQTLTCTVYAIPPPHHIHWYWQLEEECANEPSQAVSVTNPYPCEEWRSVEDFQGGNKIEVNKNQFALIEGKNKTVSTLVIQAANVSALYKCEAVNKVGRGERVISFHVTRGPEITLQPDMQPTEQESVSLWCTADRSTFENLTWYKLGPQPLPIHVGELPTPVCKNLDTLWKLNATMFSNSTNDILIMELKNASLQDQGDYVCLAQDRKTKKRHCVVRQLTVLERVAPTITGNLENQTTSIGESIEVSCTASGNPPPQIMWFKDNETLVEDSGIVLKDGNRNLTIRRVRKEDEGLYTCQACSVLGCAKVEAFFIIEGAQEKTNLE
Sequence of VEGFR2 expressed by HUVEC (P35968 20-1356): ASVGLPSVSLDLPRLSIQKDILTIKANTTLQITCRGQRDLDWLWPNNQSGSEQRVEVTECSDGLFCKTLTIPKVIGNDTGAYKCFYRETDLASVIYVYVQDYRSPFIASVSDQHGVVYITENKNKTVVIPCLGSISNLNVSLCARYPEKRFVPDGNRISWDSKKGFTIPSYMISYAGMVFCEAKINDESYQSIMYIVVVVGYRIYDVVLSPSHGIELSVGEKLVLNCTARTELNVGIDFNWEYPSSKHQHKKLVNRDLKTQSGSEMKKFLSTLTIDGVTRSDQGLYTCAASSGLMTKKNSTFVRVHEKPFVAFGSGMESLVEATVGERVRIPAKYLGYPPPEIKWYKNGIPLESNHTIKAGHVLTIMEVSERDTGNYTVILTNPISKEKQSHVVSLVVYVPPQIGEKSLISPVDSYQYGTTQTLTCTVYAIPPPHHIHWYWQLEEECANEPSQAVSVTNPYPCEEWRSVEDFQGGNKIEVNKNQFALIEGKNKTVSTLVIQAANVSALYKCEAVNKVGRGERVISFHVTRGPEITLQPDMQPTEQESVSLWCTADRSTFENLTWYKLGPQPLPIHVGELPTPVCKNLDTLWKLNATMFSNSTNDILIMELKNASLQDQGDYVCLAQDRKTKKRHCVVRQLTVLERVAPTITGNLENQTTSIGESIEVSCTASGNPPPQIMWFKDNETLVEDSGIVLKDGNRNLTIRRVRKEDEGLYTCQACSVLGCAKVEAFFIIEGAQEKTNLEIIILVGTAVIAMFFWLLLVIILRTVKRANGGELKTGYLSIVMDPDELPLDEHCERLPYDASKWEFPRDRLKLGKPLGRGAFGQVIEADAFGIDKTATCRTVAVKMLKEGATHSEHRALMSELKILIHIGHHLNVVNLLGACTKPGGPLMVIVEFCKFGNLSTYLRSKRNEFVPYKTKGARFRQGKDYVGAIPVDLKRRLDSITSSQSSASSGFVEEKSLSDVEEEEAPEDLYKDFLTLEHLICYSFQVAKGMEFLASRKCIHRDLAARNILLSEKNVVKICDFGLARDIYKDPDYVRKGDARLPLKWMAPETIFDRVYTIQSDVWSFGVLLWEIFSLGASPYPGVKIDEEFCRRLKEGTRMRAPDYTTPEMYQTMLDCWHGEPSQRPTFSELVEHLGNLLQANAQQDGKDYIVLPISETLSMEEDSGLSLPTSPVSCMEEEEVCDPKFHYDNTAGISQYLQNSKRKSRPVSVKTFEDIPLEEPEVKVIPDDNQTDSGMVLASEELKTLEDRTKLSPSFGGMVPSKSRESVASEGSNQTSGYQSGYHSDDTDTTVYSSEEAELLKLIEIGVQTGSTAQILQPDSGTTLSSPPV

growth inhibition of HUVEC with 10 ng/mL VEGF (BrdU method), IC50 [1]: 60 nM | Kd [2]: 94 nM | koff [2]: 0.002 s⁻¹ | kon [2]: 20000 M⁻¹ s⁻¹
B1: cyclic peptide L1, synthesized: ClAc-Phe-Val-Val-Val-Ser-Thr-Asp-Pro-Trp-Val-Asn-Gly-Leu-Tyr-Ile-Asp-Cys-Gly (peptide)
peptide: {CH2CO}-FVVVSTDPWVNGLYIDCG-NH2
modifications: thioether N-17
SMILES: CC[C@H](C)[C@@H]1NC(=O)[C@H](Cc2ccc(O)cc2)NC(=O)[C@H](CC(C)C)NC(=O)CNC(=O)[C@H](CC(N)=O)NC(=O)[C@H](C(C)C)NC(=O)[C@H](Cc2c[nH]c3ccccc23)NC(=O)[C@@H]2CCCN2C(=O)[C@H](CC(=O)O)NC(=O)[C@H]([C@@H](C)O)NC(=O)[C@H](CO)NC(=O)[C@H](C(C)C)NC(=O)[C@H](C(C)C)NC(=O)[C@H](C(C)C)NC(=O)[C@H](Cc2ccccc2)NC(=O)CSC[C@@H](C(=O)NCC(N)=O)NC(=O)[C@H](CC(=O)O)NC1=O
notes: Made by Fmoc solid-phase synthesis, cyclised and HPLC purified; this form was used in BLI and in the cell assays

— patent US20150299258A1 (UNIVERSITY OF TOKYO, published 2015)
